From PMC2943613 (Nucleic Acids Research, 2010)

Target: the molecule itself
Experiment: SEC

B1: Thermus thermophilus exonuclease I (TTHB178) (enzyme, Thermus thermophilus HB8, UniProt Q53VZ1 1-296, looked up)
chain: MAFGVSHPVALDLEATSTDPSEAEVLEVAAVDGEGRVFHRYLATQRPLPPDHEVFQLTGIPYEEYEAKKVAPKEALEELLAFLGGRPLLGHNLLRYDLPLLQRHLEEAGLPRWQGEALDTLRLAHLLFPTPPGGLEGYRLGDLYAFLLGRPLEGAHRALNDAQATLAVFHRLLDRGRRALAQHPGLVRAWRELGLPEGHLFPEDEGLIKDLLAREADVEAFFVEKEGRPFPAPTDLGPDLLPKPRPAQRIKEFVQVAHGVAGQGLVGRERPLHEVLERGLRLAVGEAEEGAVEKEG
stoichiometry N: 2
